These results are taken from US20230406961A1 (DEUTSCHES KREBSFORSCHUNGSZENTRUM STIFTUNG DES FFENTLICHEN …, published 2023).

Sequences and labels used below:
B1: bispecific endoglinxCD28 antibody in the IgGsc format, BiCo variant Hc-L (bispecific antibody)
heavy: QVQLVQSGAEVKKPGASVKVSCKASGYTFTSYWMHWVRQAPGQGLEWIGNIYPGSGSTFYDEKFKGRATLTVDTSISTAYMELSRLRSDDTAVYYCTRRNYVTGFDYWGQGTTVTVSSASTKGPSVFPLAPSSKSTSGGTAALGCLVKDYFPEPVTVSWNSGALTSGVHTFPAVLQSSGLYSLSSVVTVPSSSLGTQTYICNVNHKPSNTKVDKKVEPKSCDKTHTCPPCPAPPVAGPSVFLFPPKPKDTLMISRTPEVTCVVVGVSHEDPEVKFNWYVDGVEVHNAKTKPREEQYNSTYRVVSVLTVLHQDWLNGKEYKCKVSNKQLPSPIEKTISKAKGQPREPQVYTLPPSRDELTKNQVSLTCLVKGFYPSDIAVEWESNGQPENNYKTTPPVLDSDGSFFLYSKLTVDKSRWQQGNVFSCSVMHEALHNHYTQKSLSLSPGKASQVQLVESGGGVVQPGRSLRLSCAASGFSLSDYGVHWVRQAPGKGLEWLGVIWAGGGTNYNSALMSRKTISKDNSKNTVYLQMNSLRAEDTAVYYCARDKGYSYYYSMDYWGQGTTVTVSSGGGGSGGGGSGGGGSDIQMTQSPSTLSASVGDRVTIICRASESVEYYVTSLMQWYQQKPGKAPKLLIFAASNVESGVPSRFSGSGSGTEFTLTISSLQPDDFATYYCQQSRKVPYTFGQGTKLEIKR
light: DIQLTQSPSFLSASVGDRVTITCKSSQSVLYSSNQKNYLAWYQQKPGKAPKLLIYWASTRESGVPSRFSGSGSGTEFTLTISSLQPEDFATYYCHQYLSSYTFGQGTKLEIKRTVAAPSVFIFPPSDEQLKSGTASVVCLLNNFYPREAKVQWKVDNALQSGNSQESVTEQDSKDSTYSLSSTLTLSKADYEKHKVYACEVTHQGLSSPVTKSFNRGEC
notes: Humanized endoglin IgG (K-ro22-2 / K-ro22-6), FcKO, with the CD28 scFv (9.3-8, Vh-Vl) fused to the C-terminus of the heavy chain without the long linker
B2: bispecific endoglinxCD28 antibody in the IgGsc format, BiCo variant Lc-L (bispecific antibody)
heavy: QVQLVQSGAEVKKPGASVKVSCKASGYTFTSYWMHWVRQAPGQGLEWIGNIYPGSGSTFYDEKFKGRATLTVDTSISTAYMELSRLRSDDTAVYYCTRRNYVTGFDYWGQGTTVTVSSASTKGPSVFPLAPSSKSTSGGTAALGCLVKDYFPEPVTVSWNSGALTSGVHTFPAVLQSSGLYSLSSVVTVPSSSLGTQTYICNVNHKPSNTKVDKKVEPKSCDKTHTCPPCPAPPVAGPSVFLFPPKPKDTLMISRTPEVTCVVVGVSHEDPEVKFNWYVDGVEVHNAKTKPREEQYNSTYRVVSVLTVLHQDWLNGKEYKCKVSNKQLPSPIEKTISKAKGQPREPQVYTLPPSRDELTKNQVSLTCLVKGFYPSDIAVEWESNGQPENNYKTTPPVLDSDGSFFLYSKLTVDKSRWQQGNVFSCSVMHEALHNHYTQKSLSLSPGK
light: DIQLTQSPSFLSASVGDRVTITCKSSQSVLYSSNQKNYLAWYQQKPGKAPKLLIYWASTRESGVPSRFSGSGSGTEFTLTISSLQPEDFATYYCHQYLSSYTFGQGTKLEIKRTVAAPSVFIFPPSDEQLKSGTASVVCLLNNFYPREAKVQWKVDNALQSGNSQESVTEQDSKDSTYSLSSTLTLSKADYEKHKVYACEVTHQGLSSPVTKSFNRGECASQVQLVESGGGVVQPGRSLRLSCAASGFSLSDYGVHWVRQAPGKGLEWLGVIWAGGGTNYNSALMSRKTISKDNSKNTVYLQMNSLRAEDTAVYYCARDKGYSYYYSMDYWGQGTTVTVSSGGGGSGGGGSGGGGSDIQMTQSPSTLSASVGDRVTIICRASESVEYYVTSLMQWYQQKPGKAPKLLIFAASNVESGVPSRFSGSGSGTEFTLTISSLQPDDFATYYCQQSRKVPYTFGQGTKLEIKR
notes: Humanized endoglin IgG, FcKO heavy chain, with the CD28 scFv (9.3-8, Vh-Vl) fused to the C-terminus of the kappa light chain without the long linker
B3: bispecific endoglinxCD28 antibody in the IgGsc format, BiCo variant Lc+L (bispecific antibody)
heavy: B2 heavy
light: DIQLTQSPSFLSASVGDRVTITCKSSQSVLYSSNQKNYLAWYQQKPGKAPKLLIYWASTRESGVPSRFSGSGSGTEFTLTISSLQPEDFATYYCHQYLSSYTFGQGTKLEIKRTVAAPSVFIFPPSDEQLKSGTASVVCLLNNFYPREAKVQWKVDNALQSGNSQESVTEQDSKDSTYSLSSTLTLSKADYEKHKVYACEVTHQGLSSPVTKSFNRGECASGGGGSGGGGSGGGGSQVQLVESGGGVVQPGRSLRLSCAASGFSLSDYGVHWVRQAPGKGLEWLGVIWAGGGTNYNSALMSRKTISKDNSKNTVYLQMNSLRAEDTAVYYCARDKGYSYYYSMDYWGQGTTVTVSSGGGGSGGGGSGGGGSDIQMTQSPSTLSASVGDRVTIICRASESVEYYVTSLMQWYQQKPGKAPKLLIFAASNVESGVPSRFSGSGSGTEFTLTISSLQPDDFATYYCQQSRKVPYTFGQGTKLEIKR
notes: Humanized endoglin IgG, FcKO heavy chain, with the CD28 scFv (9.3-8, Vh-Vl) fused to the C-terminus of the kappa light chain through a (GGGGS)3 linker; also called BiCo-1; Bico1

In this assay the target is T1, CD28 expressed on human CD4+ and CD8+ T cells (human, UniProt P10747 19-220).
T1 construct: whole, on cells; also called T-cell-specific surface glycoprotein CD28
The experiment in a line: flow cytometry after incubation of PBMC with the constructs. The method, then:
Binding of the variants to normal human T cells was determined after incubation of PBMC with the respective constructs and subsequent analysis by flow cytometry
A general note: A flow cytometer gives signals particle by particle.
Regarding B1, the binding result is recorded as “binds”. Next, B2: “binds”; B3: “binds”.
